Reference: patent publication US20030235577A1, “Methods and compositions for preventing and treating microbial infections” (priority 2002, published 2003)

B1: MMP-12: functional full-length recombinant human MMP-12 (macrophage elastase), Genbank NP_002417 (protein, listed as Homo sapiens)
chain: MKFLLILLLQATASGALPLNSSTSLEKNNVLFGERYLEKFYGLEINKLPVTKMKYSGNLMKEKIQEMQHFLGLKVTGQLDTSTLEMMHAPRCGVPDLHHFREMPGGPVWRKHYITYRINNYTPDMNREDVDYAIRKAFQVWSNVTPLKFSKINTGMADILVVFARGAHGDFHAFDGKGGILAHAFGPGSGIGGDAHFDEDEFWTTHSGGTNLFLTAVHEIGHSLGLGHSSDPKAVMFPTYKYVDINTFRLSADDIRGIQSLYGDPKENQRLPNPDNSEPALCDPNLSFDAVTTVGNKIFFFKDRFFWLKVSERPKTSVNLISSLWPTLPSGIEAAYEIEARNQVFLFKDDKYWLISNLRPEPNYPKSIHSFGFPNFVKKIDAAVFNPRFYRTYFFVDNQYWRYDERRQMMDPGYPKLITKNFQGIGPKIDAVFYSKNKYYYFFQGSNQFEYDFLLQRITKTLKSNSWFGC
B2: MMP-2: commercially available full length pro-MMP 2 (protein, UniProt P08253 30-660, looked up)
pro-form: APSPIIKFPGDVAPKTDKELAVQYLNTFYGCPKESCNLFVLKDTLKKMQKFFGLPQTGDLDQNTIETMRKPRCGNPDVANYNFFPRKPKWDKNQITYRIIGYTPDLDPETVDDAFARAFQVWSDVTPLRFSRIHDGEADIMINFGRWEHGDGYPFDGKDGLLAHAFAPGTGVGGDSHFDDDELWTLGEGQVVRVKYGNADGEYCKFPFLFNGKEYNSCTDTGRSDGFLWCSTTYNFEKDGKYGFCPHEALFTMGGNAEGQPCKFPFRFQGTSYDSCTTEGRTDGYRWCGTTEDYDRDKKYGFCPETAMSTVGGNSEGAPCVFPFTFLGNKYESCTSAGRSDGKMWCATTANYDDDRKWGFCPDQGYSLFLVAAHEFGHAMGLEHSQDPGALMAPIYTYTKNFRLSQDDIKGIQELYGASPDIDLGTGPTPTLGPVTPEICKQDIVFDGIAQIRGEIFFFKDRFIWRTVTPRDKPMGPLLVATFWPELPEKIDAVYEAPQEEKAVFFAGNEYWIYSASTLERGYPKPLTSLGLPPDVQRVDAAFNWSKNKKTYIFAGDKFWRYNEVKKKMDPGFPKLIADAWNAIPDNLDAVVDLQGGGHSYFFKGAYYLKLENQSLKSVKFGSIKSDWLGC
modifications: pro-form
B3: MMP-9: commercially available full length pro-MMP 9 (protein, UniProt P14780 20-707, looked up)
pro-form: APRQRQSTLVLFPGDLRTNLTDRQLAEEYLYRYGYTRVAEMRGESKSLGPALLLLQKQLSLPETGELDSATLKAMRTPRCGVPDLGRFQTFEGDLKWHHHNITYWIQNYSEDLPRAVIDDAFARAFALWSAVTPLTFTRVYSRDADIVIQFGVAEHGDGYPFDGKDGLLAHAFPPGPGIQGDAHFDDDELWSLGKGVVVPTRFGNADGAACHFPFIFEGRSYSACTTDGRSDGLPWCSTTANYDTDDRFGFCPSERLYTQDGNADGKPCQFPFIFQGQSYSACTTDGRSDGYRWCATTANYDRDKLFGFCPTRADSTVMGGNSAGELCVFPFTFLGKEYSTCTSEGRGDGRLWCATTSNFDSDKKWGFCPDQGYSLFLVAAHEFGHALGLDHSSVPEALMYPMYRFTEGPPLHKDDVNGIRHLYGPRPEPEPRPPTTTTPQPTAPPTVCPTGPPTVHPSERPTAGPTGPPSAGPTGPPTAGPSTATTVPLSPVDDACNVNIFDAIAEIGNQLYLFKDGKYWRFSEGRGSRPQGPFLIADKWPALPRKLDSVFEERLSKKLFFFSGRQVWVYTGASVLGPRRLDKLGLGADVAQVTGALRSGRGKMLLFSGRRLWRFDVKAQMVDPRSASEVDRMFPGVPLDTHDVFQYREKAYFCQDRFYWRVSSRSELNQVDQVGYVTYDILQCPED
modifications: pro-form

Experiments:
S. aureus = test: In vitro antimicrobial activity, co-incubation with S. aureus in 5% LB and CFU count; format: cell-based, Staphylococcus aureus; conditions: for direct antimicrobial activity: S. aureus, similar doses and conditions as full-length MMP-12; for antimicrobial activity after heat denaturation: heat denaturation / heat inactivation; for antimicrobial activity after enzymatic inhibition: inhibited with hydroxamic acid, an MMP inhibitor
Protocol: S. aureus co-culture was incubated for 60 minutes with doses of MMP-12 C-terminal. Aliquots of cultures were diluted in PBS at 1:10 and 1:100 dilution. Dilutions were plated on LB agar plates for 18 hour incubation at 37° C. Controls consisted of column fractions that lacked MMP-12 carboxy terminal determined by immunoblotting.
(§1) MMP-12's mechanism of action as a host defense protein was investigated. To test for direct activity, functional full-length recombinant human MMP-12 was incubated with S. aureus in a 5% LB culture. […] MMP-12 enzymatic activity was not required for this antimicrobial effect.
(§2) Mid-log phase bacteria (10^5) were incubated in the absence or presence of purified MMP-12 C-terminal in a total volume of 100 μl of 10 mmol/L sodium phosphate containing 5% (vol/vol) TSB at 37° C. for 1 hour. Serial dilutions were then spread on agarose plates and the number of CFUs were determined after overnight incubation.

K. pneumonia = test: In vitro antimicrobial activity against K. pneumonia; format: cell-based; conditions: compared with S. aureus dose response
Protocol: as §1
Recombinant full length human MMP-12 was co-incubated with S. aureus and K. pneumonia for 2 hours. Dose response curve was for recombinant murine carboxy terminal domain against S. aureus and E. coli after one-hour co-incubation.

E. coli (K1) = test: In vitro antimicrobial activity against E. coli (K1); format: cell-based
Protocol: as §2

Row | Molecule | bacterial kill (S. aureus; 16 μg/ml, 2-hour incubation, 5% LB culture) [%] | direct antimicrobial activity (S. aureus; 5% LB culture) | direct antimicrobial activity (S. aureus; 5% LB culture, listed as pro-MMP-12) | antimicrobial activity after heat denaturation (S. aureus) | antimicrobial activity after heat denaturation (S. aureus; listed as Pro-MMP-12) | antimicrobial activity after enzymatic inhibition (S. aureus) | antimicrobial activity after enzymatic inhibition (S. aureus; listed as Pro-MMP-12) | antimicrobial activity against K. pneumonia (K. pneumonia) | antimicrobial activity against E. coli (K1) (E. coli (K1))
1 | B1 | 90 | antimicrobial activity | direct anti-microbial effect | Neither the denatured MMP-12 or enzymatically inhibited enzyme lost its antimicrobial function | did not lose its anti-microbial activity | Neither the denatured MMP-12 or enzymatically inhibited enzyme lost its antimicrobial function | did not lose its anti-microbial activity | antimicrobial activity | antimicrobial activity
2 | B2 |  | did not demonstrate this direct antimicrobial activity |  |  |  |  |  |  | 
3 | B3 |  | did not demonstrate this direct antimicrobial activity |  |  |  |  |  |  | 
